# According to patent publication US20240327530A1 (ICHNOS SCIENCES, published 2024):
# T1: Mouse IL-1RAP, membrane-bound on NIH-3T3 cells (mouse, UniProt Q61730 21-570)
# T1 construct: Endogenous protein on cells
# T1 sequence (looked up): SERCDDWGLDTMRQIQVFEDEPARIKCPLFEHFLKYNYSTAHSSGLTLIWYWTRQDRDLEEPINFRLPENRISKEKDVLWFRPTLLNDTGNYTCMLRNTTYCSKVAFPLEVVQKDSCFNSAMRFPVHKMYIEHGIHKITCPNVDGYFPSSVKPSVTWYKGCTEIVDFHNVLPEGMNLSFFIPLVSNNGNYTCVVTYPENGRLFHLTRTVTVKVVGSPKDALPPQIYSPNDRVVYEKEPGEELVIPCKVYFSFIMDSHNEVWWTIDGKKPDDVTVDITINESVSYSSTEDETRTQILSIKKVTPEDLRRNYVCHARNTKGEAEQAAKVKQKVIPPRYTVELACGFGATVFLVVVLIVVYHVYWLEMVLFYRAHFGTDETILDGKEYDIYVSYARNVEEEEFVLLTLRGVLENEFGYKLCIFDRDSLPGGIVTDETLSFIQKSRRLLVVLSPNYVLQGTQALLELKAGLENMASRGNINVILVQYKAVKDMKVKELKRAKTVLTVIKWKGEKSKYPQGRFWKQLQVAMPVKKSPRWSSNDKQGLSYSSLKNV
# T2: Human IL-1RAP, membrane-bound on human cells (HaCaT, dermal fibroblasts, neutrophils, PBMC, whole blood) (human, UniProt Q9NPH3 21-570)
# T2 sequence: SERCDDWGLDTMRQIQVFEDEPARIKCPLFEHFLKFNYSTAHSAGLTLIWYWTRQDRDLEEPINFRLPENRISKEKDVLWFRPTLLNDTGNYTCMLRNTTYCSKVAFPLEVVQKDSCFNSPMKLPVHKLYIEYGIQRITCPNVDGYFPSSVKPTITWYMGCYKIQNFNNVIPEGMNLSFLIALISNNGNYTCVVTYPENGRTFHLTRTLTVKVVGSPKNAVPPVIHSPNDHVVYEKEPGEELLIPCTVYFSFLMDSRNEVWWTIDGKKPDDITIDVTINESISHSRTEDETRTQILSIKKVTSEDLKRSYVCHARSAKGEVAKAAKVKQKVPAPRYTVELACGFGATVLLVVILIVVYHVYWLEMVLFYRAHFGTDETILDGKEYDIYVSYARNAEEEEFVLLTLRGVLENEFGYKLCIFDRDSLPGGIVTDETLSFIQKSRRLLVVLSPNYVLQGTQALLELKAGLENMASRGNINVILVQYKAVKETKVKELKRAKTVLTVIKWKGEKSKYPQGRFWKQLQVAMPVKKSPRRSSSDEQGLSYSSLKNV
# B1: Anti-IL-1RAP-C3-A3 mmIgG2a LALA (antibody, V domains shown)
# VH: EVQLLESGGGLVQPGGSLRLSCAASGFIFSHYGMSWVRQAPGKGLEWVSAISYDGEGTLYADSVKGRFTISRDNSKNTLYLQMNSLRAEDTAVYYCARFRYYTAFDYWGQGTLVTVSS
# VL: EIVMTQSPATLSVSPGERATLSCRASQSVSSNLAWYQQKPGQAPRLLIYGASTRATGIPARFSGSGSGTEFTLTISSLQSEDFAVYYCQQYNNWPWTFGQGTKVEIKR
# notes: also called anti-IL-1RAP-C3-A3 mouse IgG2a LALA
# B2: Anti-IL-1RAP-C8-RecC-ES-IgG1LALA (antibody, V domains shown)
# VH: QVQLVQSGAEVKKPGSSVKVSCKASGSPAEPYAIQWVRQAPGQGLEWMGYIIPSLGGYDYAQKFQGRVTITADESTSTAYMELSSLRSEDTAVYYCARGQTLYESGRQFDIWGQGTLVTVSS
# VL: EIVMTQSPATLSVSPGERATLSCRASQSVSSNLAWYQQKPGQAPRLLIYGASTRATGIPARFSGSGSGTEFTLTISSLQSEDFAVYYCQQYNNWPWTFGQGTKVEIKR
# notes: also called ISB 880-C8-recC-ES
# Legend:
# [1] = molecular target: T1, Mouse IL-1RAP, membrane-bound on …; assay: flow cytometry on NIH-3T3 cells, nonlinear sigmoidal regression
# Experimental: In brief, cells were harvested, counted, and plated at 50′000 cells/well in a 96-well round-bottom plate. The plate was centrifuged at 350 g for 3 minutes and the cells were resuspended in […] of FACS® buffer (PBS (1×)+2.5% FCS+2 mM EDTA+0.05% NaN₃) containing various concentrations (ranging from 20 to 0.0001 μg/ml) of either anti-mouse IL-1RAP_candidate_1 or Isotype control_2 antibodies. Stained cells were incubated for 30 minutes at 4° C., washed twice with FACS® buffer at 350 g for 3 min and resuspended in 100 μl of a monoclonal anti-mouse IgG PE-Cyanine7 secondary antibody (Biolegend, 407114) diluted 1/200 in FACS® buffer. Cells were then washed twice, and resuspended in 200 μl of FACS® buffer containing SYTOX® Green dead cell stain (THERMO FISHER […]®, S34860) and samples were acquired on a CYTOFLEX® instruments (Beckman Coulter). The cells were gated based on size on FSC vs SSC and analysed for PE-Cyanine7-geometric mean (geomean) fluorescence intensity using FLOWJO® software. Finally, relative geomean fluorescence intensity was calculated by subtracting fluorescence of anti-mouse IL-1RAP_candidate_1 per fluorescence of Isotype control_2. As depicted in FIG. 11, anti-mouse IL-1RAP_candidate_1 antibody recognizes membrane-bound IL-1RAP expressed on NIH-3T3 cell line. […] Each data point is a measurement for a given cell line. […]
# [2] = molecular target: T2, Human IL-1RAP, membrane-bound on human …; assay: cell-based or functional assay
Binder,Kd [1] [nM],"human whole blood, IL-1alpha stimulation, IL-6 release, mean EC50 of inhibition [2] [nM]","human whole blood, IL-1alpha stimulation, IL-8 release, mean EC50 of inhibition [2] [nM]","human whole blood, IL-1alpha stimulation, MCP-1 release, mean EC50 of inhibition [2] [nM]","human whole blood, IL-1alpha stimulation, MIP-1alpha release, mean EC50 of inhibition [2] [nM]","human whole blood, IL-1alpha stimulation, MIP-1beta release, mean EC50 of inhibition [2] [nM]","human whole blood, IL-1beta stimulation, IL-6 release, mean EC50 of inhibition [2] [nM]","human whole blood, IL-1beta stimulation, IL-8 release, mean EC50 of inhibition [2] [nM]","human whole blood, IL-1beta stimulation, MCP-1 release, mean EC50 of inhibition [2] [nM]","human whole blood, IL-1beta stimulation, MIP-1alpha release, mean EC50 of inhibition [2] [nM]","human whole blood, IL-1beta stimulation, MIP-1beta release, mean EC50 of inhibition [2] [nM]"
B1,1.15,,,,,,,,,,
B2,,9.5,14.2,11.1,15,89,8.8,24.7,17.7,16,53.3
